Tested on: Arabidopsis
Assay: dgt-28, dgt-32, dgt-33, dgt-3, dgt-7 transformed Arabidopsis (T1, T2, T3) response to postemergence glyphosate, % visual injury
Format: in vivo, Arabidopsis thaliana
Settings: 14 days after application
Text: Transgenic T1 Arabidopsis plants containing the dgt-28 transgene were sprayed with differing rates of glyphosate. Elevated rates were applied in this study to determine the relative levels of resistance (105, 420, 1,680 or 3,360 g ae/ha). A typical 1× usage rate of glyphosate that will control non-transformed Arabidopsis is 420 g ae/ha. […] The T1 Arabidopsis plants that were used in this study were variable copy number for the dgt-28 transgene. The low copy dgt-28 T1 Arabidopsis plants were self-pollinated and used to produce T2 plants.
Results of Glyphosate Selection of Transformed dgt-28 Arabidopsis Plants. The Arabidopsis T1 transformants were first selected from the background of untransformed seed using a glufosinate selection scheme. Three flats or 30,000 seed were analyzed for each T1 construct. The T1 plants selected above were molecularly characterized and representative plants with variable copy number were subsequently transplanted to individual pots and sprayed with various rates of commercial glyphosate as previously described. The response of these plants is presented in terms of % visual injury 2 weeks after treatment (WAT). […] An arithmetic mean and standard deviation is presented for each construct used for Arabidopsis transformation. The range in individual response is also indicated in the last column for each rate and transformation. Wild-type, non-transformed Arabidopsis (c.v. Columbia) served as a glyphosate sensitive control.
T2Arabidopsis Data. The second generation plants (T2) of selected T1 Arabidopsis events which contained low copy numbers of the dgt-28 transgene were further characterized for glyphosate tolerance. Glyphosate was applied as described previously. The response of the plants is presented in terms of % visual injury 2 weeks after treatment (WAT). […] An arithmetic mean and standard deviation are presented for each construct used for Arabidopsis transformation. The range in individual response is also indicated in the last column for each rate and transformation. Wild-type, non-transformed Arabidopsis (cv. Columbia) served as a glyphosate sensitive control. In the T2 generation hemizygous and homozygous plants were available for testing for each event and therefore were included for each rate of glyphosate tested. Hemizygous plants contain two different alleles at a locus as compared to homozygous plants which contain the same two alleles at a locus. Variability of response to glyphosate is expected in the T2 generation as a result of the difference in gene dosage for hemizygous as compared to homozygous plants. The variability in response to glyphosate is reflected in the standard deviation and range of response.
T3 Arabidopsis Data. The third generation plants (T3) of selected T2 Arabidopsis events which contained low copy numbers of the dgt-28 transgene were further characterized for glyphosate tolerance. […] Glyphosate was applied as described previously. The response of the plants is presented in terms of % visual injury 2 weeks after treatment (WAT). […] An arithmetic mean and standard deviation are presented for each construct used for Arabidopsis transformation. The range in individual response is also indicated in the last column for each rate and transformation. Wild-type, non-transformed Arabidopsis (cv. Columbia) served as a glyphosate-sensitive control.

[1] = Table 8, T1 Arabidopsis, 105 g ae/ha glyphosate
[2] = Table 8, T1 Arabidopsis, 420 g ae/ha glyphosate
[3] = Table 8, T1 Arabidopsis, 1680 g ae/ha glyphosate
[4] = Table 8, T1 Arabidopsis, 3360 g ae/ha glyphosate
[5] = Table 10, T1 Arabidopsis, 1,680 g ae/ha glyphosate

B1: pDAB107527: TraP4 v2 - dgt-28 v5: binary construct TraP4 v2:dgt-28 v5 (SEQ ID NO:32) (nucleic acid)
DNA: ATGCTTGCTAGACAAGGTGGAAGTCTGAGAGCTTCTCAATGCAACGCTGGACTTGCTAGAAGAGTTGAAGTTGGTGCTCTTGTTGTTCCTAGACCTATCTCTGTTAACGACGTTGTTCCTCACGTTTACTCTGCTCCACTTTCTGTTGCTAGAAGGTCTTGCTCTAAGTCCTCCATTAGGTCCACTAGAAGGCTTCAAACTACTGTGTGCTCTGCTGCAAGAGGGATGCCAGCCTTGTCTTTACCTGGATCAAAGAGTATCACAGCTAGGGCACTCTTTCTTGCTGCTGCTGCTGATGGGGTTACTACTTTGGTGAGGCCATTGAGAAGTGACGACACAGAAGGATTCGCTGAGGGGTTAGTTCGTTTAGGCTATCGTGTAGGGAGGACACCCGATACTTGGCAAGTCGATGGCAGACCACAAGGACCAGCAGTGGCTGAGGCTGACGTCTACTGTAGAGACGGAGCAACCACCGCTAGATTCTTGCCAACCTTAGCAGCTGCTGGTCACGGAACATACAGATTTGATGCTTCACCACAGATGAGGAGACGTCCTCTTTTGCCCTTAAGCAGAGCCTTGAGGGATTTGGGTGTCGATCTTAGACACGAAGAAGCTGAAGGTCATCACCCTCTGACTGTCCGTGCTGCTGGGGTTGAAGGAGGAGAGGTTACTTTGGATGCTGGTCAGTCAAGTCAGTATCTCACTGCCTTGTTGCTCCTTGGTCCCCTTACAAGACAAGGACTGAGGATAAGGGTTACTGATTTGGTGTCAGCACCATACGTGGAGATTACGCTTGCAATGATGAGGGCTTTCGGAGTTGAAGTGGCAAGGGAGGGAGATGTGTTCGTTGTTCCACCTGGTGGATATCGTGCAACTACGTATGCTATAGAACCCGACGCAAGTACTGCTTCTTACTTCTTCGCAGCTGCTGCTTTGACTCCTGGAGCTGAAGTGACTGTACCTGGGTTAGGCACGGGAGCACTTCAAGGAGATTTGGGATTTGTAGATGTCTTAAGGAGAATGGGAGCCGAGGTGTCCGTAGGAGCTGATGCAACCACTGTTAGAGGAACTGGTGAATTGCGTGGCCTTACAGCCAACATGAGAGACATAAGTGATACGATGCCGACCCTCGCTGCAATAGCACCCTTTGCTAGTGCTCCAGTTAGAATCGAGGATGTTGCCAACACTCGTGTCAAAGAATGTGACAGACTTGAGGCTTGTGCAGAGAACCTTAGGAGGTTGGGAGTAAGGGTTGCAACGGGTCCGGACTGGATTGAGATACACCCTGGTCCAGCTACTGGTGCTCAAGTCACAAGCTATGGTGATCACAGAATTGTGATGTCATTTGCAGTGACTGGACTTCGTGTGCCTGGGATCAGCTTCGACGACCCTGGCTGTGTTCGTAAGACTTTTCCTGGGTTTCACGAGGCTTTCGCAGAATTGAGGCGTGGCATTGGGAGCTGA
modifications: In-frame fusion of dgt-28 v5 and TraP4 v2
[1]
  % Injury Ave: 3.8%
  % Injury Range (%): 0-15%
  No. plants with 20-40% injury: 0
  No. plants with <20% injury: 4
  No. plants with >40% injury: 0
[2]
  % Injury Ave: 28.8%
  % Injury Range (%): 0-65%
  No. plants with 20-40% injury: 1
  No. plants with <20% injury: 2
  No. plants with >40% injury: 1
[3]
  % Injury Ave: 55.0%
  % Injury Range (%): 35-85%
  No. plants with 20-40% injury: 2
  No. plants with <20% injury: 0
  No. plants with >40% injury: 2
[4]
  % Injury Ave: 43.8%
  % Injury Range (%): 30-70%
  No. plants with 20-40% injury: 2
  No. plants with <20% injury: 0
  No. plants with >40% injury: 2
[5]
  % Injury Ave: 55.0%
  % Injury Range (%): 35-85%
  No. plants with 20-40% injury: 2
  No. plants with <20% injury: 0
  No. plants with >40% injury: 2

From patent publication US9493781B2, “Synthetic brassica-derived chloroplast transit peptides” (DOW AGROSCIENCES LLC, priority 2012, dated 2016)
